Drawing on PMC3951589, this text covers stoichiometry N for one substance.

The target in this experiment is pIICASV-GP2(267–351) (not stated | CAS virus (CASV)). Description: SEC. (In general: SEC sorts molecules by how far they enter the pores of the column.)

For orientation: stoichiometry N means a count of units in the complex or per binding partner. “pIICASV-GP2(267–351) (domain or fragment)” registered a stoichiometry N of 3.
